# Measured values published in US20140235820A1, “METHODS AND COMPOSITIONS FOR MODULATING THE Wnt PATHWAY” (Genentech, Inc., priority 2010, published 2014).
# Non-standard residues stand in square brackets, D forms with d. NMeI = CC[C@H](C)[C@H](NC)C(=O)O; NMeK = CN[C@@H](CCCCN)C(=O)O; NMeS = CN[C@@H](CO)C(=O)O
# T1: human LRP6 construct E1 (amino acids A20-D325) (human, UniProt O75581 20-325)
# T1 construct: range 20-325; In the Fab crystal E1 arose from E1E2 degraded beyond Arg 335; residues Ala20 to Lys324 were traced; also called LRP6 E1; E1 domain
# T1 sequence (looked up): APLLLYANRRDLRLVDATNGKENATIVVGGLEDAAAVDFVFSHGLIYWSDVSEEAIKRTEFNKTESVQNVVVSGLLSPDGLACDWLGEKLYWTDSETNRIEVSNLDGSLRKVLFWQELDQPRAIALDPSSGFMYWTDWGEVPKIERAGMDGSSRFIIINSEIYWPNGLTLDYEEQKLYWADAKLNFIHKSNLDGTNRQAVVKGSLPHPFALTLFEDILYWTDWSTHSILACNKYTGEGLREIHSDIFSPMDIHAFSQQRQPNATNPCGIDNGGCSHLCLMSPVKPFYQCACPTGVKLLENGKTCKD
# B1: Ac-NSIKGY-am (peptide)
# peptide: Ac-NSIKGY-NH2
# notes: also called minimized analogue of the Dkk1 peptide; Lys parent
# B2: Ac-NSIKGY-am with Gln in place of Asn (peptide)
# peptide: Ac-QSIKGY-NH2
# B3: Ac-NSIKGY-am with Glu in place of Ile (peptide)
# peptide: Ac-NSEKGY-NH2
# B4: Ac-NSIKGY-am with an Nα-methyl amino acid at the S position (peptide)
# peptide: Ac-N[NMeS]IKGY-NH2
# SMILES: CC[C@H](C)[C@H](NC(=O)[C@H](CO)N(C)C(=O)[C@H](CC(N)=O)NC(C)=O)C(=O)N[C@@H](CCCCN)C(=O)NCC(=O)N[C@@H](Cc1ccc(O)cc1)C(N)=O
# B5: Ac-NSIKGY-am with an Nα-methyl amino acid at the I position (peptide)
# peptide: Ac-NS[NMeI]KGY-NH2
# SMILES: CC[C@H](C)[C@@H](C(=O)N[C@@H](CCCCN)C(=O)NCC(=O)N[C@@H](Cc1ccc(O)cc1)C(N)=O)N(C)C(=O)[C@H](CO)NC(=O)[C@H](CC(N)=O)NC(C)=O
# B6: Ac-NSIKGY-am with an Nα-methyl amino acid at the K position (peptide)
# peptide: Ac-NSI[NMeK]GY-NH2
# SMILES: CC[C@H](C)[C@H](NC(=O)[C@H](CO)NC(=O)[C@H](CC(N)=O)NC(C)=O)C(=O)N(C)[C@@H](CCCCN)C(=O)NCC(=O)N[C@@H](Cc1ccc(O)cc1)C(N)=O
# Target: T1, human LRP6 construct E1 (amino acids …)
# Experiment: synthetic peptides, competition IC50 (FIG. 18)
row,Binder,binding result
1,B1,binds
2,B2,no binding
3,B3,no binding
4,B4,no binding
5,B5,no binding
6,B6,no binding
